Our source for the Kd values is patent US8957029 (MAX PLANCK GESELLSCHAFT ZUR FORDERUNG DER WISSENSCHAFTEN E V, dated 2015).

For the assay, the target named is non-muscle actin. The experiment in a line: F-actin co-sedimentation, peptide fluorescence in pellet over total, hyperbolic fit.

No end group written: not given here. fluorescein = fluorescein tag at the N-terminus

B1: F-Lifeact (chemically synthesized 17aa Lifeact peptide tagged with fluorescein at its N-terminus) (peptide)
peptide: fluorescein-MGVADLIKKFESISKEE
notes: also called fluorescein conjugated Lifeact; F-Lifeact peptide
With B1, the Kd turned out to be 5.4 µM.
